Experiment [1] concerns the target GST-pre-S1 (1st to 56th amino acids) protein (hepatitis B virus) [GST: P08515]. The experiment can be described thus: competitive ELISA and BLI (Octet Red).
Experiment [2] shares this target. The experiment can be described thus: BLI (Octet Red), antibody captured on anti-human Fc tip, GST-pre-S1 in solution. (In general: In BLI a coated tip is dipped into the sample, and binding shifts an interference pattern.)

GST-pre-S1 (1st to 56th amino acids) protein (hepatitis B virus) [GST: P08515], sequence (P08515 whole entry): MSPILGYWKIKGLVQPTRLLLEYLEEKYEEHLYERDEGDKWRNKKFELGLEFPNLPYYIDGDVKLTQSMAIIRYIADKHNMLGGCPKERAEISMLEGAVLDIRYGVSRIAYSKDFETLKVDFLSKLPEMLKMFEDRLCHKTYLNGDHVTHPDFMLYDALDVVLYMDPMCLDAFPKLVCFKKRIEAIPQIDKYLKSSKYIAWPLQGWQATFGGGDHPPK

B1: humanized antibody HzKR127-3.1 (antibody, V domains shown)
VH: QVQLQQSGAEVKKPGASVKVSCKASGYTFTSSWMNWVRQAPGQGLEWMGRIYPGDGDTNYAQKFQGRVTMTADKSTSTVYMELSSLRSEDTAVYYCAREYAEAYWGQGTLVTVSS
VL: DIVMTQTPLSLSVTPGQPASISCKSSQSLLYSNGKTYLNWLLQKPGQPPQRLIYLVSNRDSGVPDRFSGSGSGTDFTLKISRVEAEDVGVYYCVQGTHFPQTFGGGTKVEIKR
Broadly, the Kd is the equilibrium constant for the complex coming apart. Low readings indicate a tighter complex, high ones a looser complex. In general, koff refers to the rate constant with which the complex falls apart. High values mean a short-lived complex, low ones a long-lived complex. The kon is the rate constant with which the complex forms. A low value points to slow association. Consider B1, for which the fold higher affinity than HzKR127-3 in experiment [1] came out at 4.9 fold. Besides, in experiment [2], the Kd worked out at 0.813 nM, the dissociation rate constant (koff) worked out at 4.13e-05 s⁻¹ and the on-rate (kon) was 50800 M⁻¹ s⁻¹.

The values above are taken from patent US20170260258A1.
